Test results as given in patent EP1980246A1.

Experiments:
[1] = biological target: purified porcine TGF-β1 (Peninsula) (porcine) (UniProt P07200); assay: active TGF-β ELISA, R2X capture, TGF-β titrated in TBS, BDA47 detection; ΔA50%
[2] = biological target: recombinant human TGF-β1 (human) (UniProt P01137); assay: as above
Sequence of recombinant human TGF-β1 (human) (P01137 279-390 limits assumed): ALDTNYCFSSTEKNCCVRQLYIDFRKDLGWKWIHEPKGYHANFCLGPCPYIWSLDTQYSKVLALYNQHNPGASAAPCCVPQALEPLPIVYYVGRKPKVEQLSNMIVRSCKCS

Sequence of purified porcine TGF-β1 (Peninsula) (porcine) (P07200 279-390 limits assumed): as the sequence (P01137 279-390 limits assumed) above

EC50 [1]: 0.68 nM | EC50 [2]: 0.72 nM
Substance: truncated extracellular domain of the type II TGF-beta receptor fused to glutathione-S-transferase (R2X) (from UniProt P08515 1-218; P37173 23-166)
